T1: Human CD93 recombinant protein (Sino Biological Inc, Catalog #12589-H08H) (human, UniProt Q9NPY3 22-580)
T1 construct: Biotinylated (EZ-LINK NHS-PEG4 biotin) in the BLI assays; also called hCD93; His-tagged human CD93
T1 sequence (looked up): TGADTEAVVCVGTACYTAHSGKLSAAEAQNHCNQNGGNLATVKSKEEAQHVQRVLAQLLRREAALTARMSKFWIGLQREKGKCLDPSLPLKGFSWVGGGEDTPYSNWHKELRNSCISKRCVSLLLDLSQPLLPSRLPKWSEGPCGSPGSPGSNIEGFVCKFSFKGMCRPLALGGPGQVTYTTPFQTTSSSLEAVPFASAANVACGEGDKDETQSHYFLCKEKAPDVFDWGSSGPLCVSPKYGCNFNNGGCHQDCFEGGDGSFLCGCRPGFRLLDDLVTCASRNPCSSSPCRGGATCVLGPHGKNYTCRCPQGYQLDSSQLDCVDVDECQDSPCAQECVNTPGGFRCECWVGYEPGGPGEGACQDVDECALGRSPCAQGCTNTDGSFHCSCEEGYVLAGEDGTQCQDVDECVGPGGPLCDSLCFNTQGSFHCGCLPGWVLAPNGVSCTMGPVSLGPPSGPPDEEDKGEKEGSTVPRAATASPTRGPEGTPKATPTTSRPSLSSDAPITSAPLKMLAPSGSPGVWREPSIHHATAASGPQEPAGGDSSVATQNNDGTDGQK

T2: Human CD93 on cells (human CD93 expressing CHO cells; HUVEC, U937 and KG1a cells) (human, UniProt Q9NPY3 22-652)
T2 construct: whole, on cells; also called hCD93 expressing CHO cells; hCD93 CHO cells
T2 sequence (looked up): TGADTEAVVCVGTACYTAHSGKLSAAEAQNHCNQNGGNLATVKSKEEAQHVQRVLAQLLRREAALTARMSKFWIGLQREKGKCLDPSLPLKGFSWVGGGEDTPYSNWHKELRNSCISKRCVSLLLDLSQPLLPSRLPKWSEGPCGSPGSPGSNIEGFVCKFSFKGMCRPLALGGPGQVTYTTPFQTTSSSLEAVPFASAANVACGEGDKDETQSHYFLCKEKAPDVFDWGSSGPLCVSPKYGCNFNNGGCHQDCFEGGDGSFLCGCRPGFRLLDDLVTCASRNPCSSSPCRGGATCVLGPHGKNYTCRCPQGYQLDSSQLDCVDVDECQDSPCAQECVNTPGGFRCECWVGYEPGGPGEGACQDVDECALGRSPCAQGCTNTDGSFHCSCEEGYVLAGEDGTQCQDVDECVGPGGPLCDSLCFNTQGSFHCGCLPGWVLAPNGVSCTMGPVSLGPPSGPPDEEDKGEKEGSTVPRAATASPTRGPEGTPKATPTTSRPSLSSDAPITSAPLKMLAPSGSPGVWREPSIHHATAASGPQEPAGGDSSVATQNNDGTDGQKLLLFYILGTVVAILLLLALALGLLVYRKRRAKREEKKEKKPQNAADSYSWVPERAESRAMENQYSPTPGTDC


Tests used:
[1] = biological target: T1, Human CD93 recombinant protein (Sino …); assay: summary table, column ELISA (hCD93); 2 weeks at 40 C
Method: (§1) His-tagged human CD93 was coated onto a 96 well plate at 1 μg/mL in 1×PBS overnight at 4° C. The plate was washed with ELISA wash buffer (Boston BioProduct, Inc.) and the wells were blocked with ELISA blocking buffer for 1 hour at 37° C. […] The plate was washed with ELISA wash Buffer. HRP-conjugated anti-human Fc antibody was incubated for 1 hour at 37° C. The plate was washed with ELISA wash Buffer. HRP substrate was added for indirect detection of the antibodies binding to CD93.
as §1

[2] = biological target: T2, Human CD93 on cells (human CD93 …); assay: summary table, column FACS (KG1a cells)
Method: (§2) KG1a cells were detached by incubation with TrypLE reagents (Thermo Fisher), which preserves the integrity of CD93 on the cell surface. Then the cells were incubated with serial diluted anti-CD93 antibodies for 30 minutes at 4° C. After washing by FACS buffer, the cells were incubated with Alexa Fluor 647 conjugated anti-human IgG (Jackson ImmunoResearch) for 30 minutes in 4° C. After washing by FACS buffer twice, the samples were acquired in NovoCyte Flow Cytometer and analyzed by NovoExpress software.
as §2

[3] = biological target: T1, Human CD93 recombinant protein (Sino …); assay: ELISA, His-tagged human CD93 coated, OD450; antibody stored 4 weeks at 40 C
Method: as §1

[4] = biological target: T2, Human CD93 on cells (human CD93 …); assay: summary table, column FACS (CHO-hCD93 cells); 4 weeks at 40 C
[5] = biological target: T2, Human CD93 on cells (human CD93 …); assay: flow cytometry titration, KG1a cells; antibody stored 2 weeks at 40 C
Method: as §2

[6] = biological target: T1, Human CD93 recombinant protein (Sino …); assay: ELISA, His-tagged human CD93 coated, OD450; antibody stored 2 weeks at 40 C
Method: as §1

[7] = biological target: T2, Human CD93 on cells (human CD93 …); assay: summary table, column FACS (CHO-hCD93 cells); 2 weeks at 40 C
[8] = biological target: T1, Human CD93 recombinant protein (Sino …); assay: ELISA, His-tagged human CD93 coated, OD450
Method: as §1

[9] = biological target: T1, Human CD93 recombinant protein (Sino …); assay: summary table, column ELISA (hCD93); 4 weeks at 40 C
Method: as §1, §1

[10] = biological target: T2, Human CD93 on cells (human CD93 …); assay: summary table, column FACS (HUVEC cells)

| EC50 [1] | EC50 [2] | EC50 [3] | EC50 [4] | EC50 [5] | EC50 [6] | EC50 [7] | EC50 [8] | EC50 [9] | EC50 [10] | Binder |
| --- | --- | --- | --- | --- | --- | --- | --- | --- | --- | --- |
| 0.049 nM | 0.131 nM | 0.051 nM | 0.312 nM | 0.113 nM | 0.049 nM | 0.274 nM | 0.033 nM | 0.051 nM | – | h16E4 (humanized 16E4, VH4+VL6) (antibody, V domains shown, Detected with anti-human IgG, so a human Fc) VH: QVQLVQSGAEVKKPGASVKVSCKASGYTFTSYWMHWVRQAPGQGLEWMGEIDPSASYTYYNQKFKGRVTMTRDKSSSTVYMELSSLTSEDSAVYYCARSVYYGNKYFDVWGAGTTVTVSS VL: DIQMTQSPSTLSASVGDRVTITCKASQSVDYAGDSYMNWYQQKPGKAPKLLIYAASNLESGVPSRFSGSGSGTEFTLTISSLQPDDFATYYCQQTNEDPRTFGGGTKLEIK |
| 0.0413 nM | 0.024 nM | 0.0407 nM | 0.195 nM | 0.021 nM | 0.0413 nM | 0.194 nM | 0.0427 nM | 0.0407 nM | 1.34 nM | h7F3 (humanized 7F3, VH3+VL3) (antibody, human IgG1, V domains shown, also called humanized 7F3-hIgG1) VH: QVQLVQSGAEVKKPGASVKVSCKASGYTFTDYEMHWVRQAPGQGLEWMGGIDPETGDTAYNQNFKGRVTMTTDTSTSTAYMELRSLTSDDTAVYYCTNYGNLYYYAMDYWGQGTSVTVSS VL: EIVLTQSPSSLSASVGDRVTITCRASSSVSSSYLHWYQQKPGKAPKLLIYSTSNLAFGVPSRFSGSGSGTSYTFTISSLQPEDIATYYCQQYSGYPLTFGSGTKLEIK |
| – | – | – | – | – | – | – | – | – | 0.2 nM | 16E4 (hybridoma) (antibody, IgG2a, V domains shown, also called 16E4 mAb; 16E4 mIgG2a) VH: QVQLQQPGAELVKPGASVKLSCKASGYTFTSYWMHWVKQRPGQGLEWIGEIDPSASYTYYNQKFKGKATLTVDKSSSTAYMQLSSLTSEDSAVYYCARSVYYGNKYFDVWGAGTTVTVSS VL: not shown |

— patent US20230365705A1 (DYNAMICURE BIOTECHNOLOGY, published 2023)
